# Molecular target: p53 wild-type (UniProt P04637)
# Assay: cell_activity
# Conditions: dual luciferase activation in H1299 (p53 null)
# p53 wild-type, sequence (P04637 whole entry): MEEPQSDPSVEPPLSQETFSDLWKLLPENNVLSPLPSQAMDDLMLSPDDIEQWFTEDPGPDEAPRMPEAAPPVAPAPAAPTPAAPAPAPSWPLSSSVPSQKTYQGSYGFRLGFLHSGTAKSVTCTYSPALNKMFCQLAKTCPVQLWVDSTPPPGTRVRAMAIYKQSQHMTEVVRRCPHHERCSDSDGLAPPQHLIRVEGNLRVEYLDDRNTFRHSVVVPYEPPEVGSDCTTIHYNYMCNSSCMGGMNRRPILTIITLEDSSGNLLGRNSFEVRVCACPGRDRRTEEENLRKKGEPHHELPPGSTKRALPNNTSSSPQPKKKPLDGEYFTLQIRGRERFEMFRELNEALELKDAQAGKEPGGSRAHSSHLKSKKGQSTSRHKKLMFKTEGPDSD
substance,measurement,value
killin promoter 140 bp fragment with p53 site (pGL3-Killin),activity,70 fold
